Results published in patent publication US20240148894A1, “USE OF ANTIBODY-DRUG CONJUGATE TARGETING HER2 IN TREATMENT OF SPECIFIC BREAST CANCER” (priority 2021, published 2024).
“And” between values parts separate entries of the source, which are not always exact repeats. Equal entries are not always repeated. “Also recorded” adds a separate entry of the source.

Tested on: HER2-positive (IHC 3+ or FISH +) locally advanced or metastatic breast cancer
Test: Parallel-group, randomized, open-label clinical trial; progression-free survival (PFS), ITT and metastatic-site subgroup analyses
Format: in vivo, human
Procedure: This study was a parallel-group, randomized, open-label clinical trial to evaluate the efficacy and safety of Disitamab vedotin as compared to treatment with lapatinib and capecitabine in patients with HER2-positive (positive being defined as IHC 3+ or FISH +) locally advanced or metastatic breast cancer. Subjects were randomized 1:1.
The primary endpoint indicator of the study was PFS (progression-free survival), which was evaluated for 6 weeks (±7 days).
Disitamab vedotin, namely RC48-ADC (average DAR value: 4±0.5), was administered at a dose of 2.0 mg/kg via intravenous drip, once every 2 weeks, 42 days as one treatment cycle.

[1] = overall ITT, RC48-ADC relative to capecitabine+lapatinib

B1: Disitamab vedotin (conjugate, chains of the INN, looked up)
VH: EVQLVQSGAEVKKPGATVKISCKVSGYTFTDYYIHWVQQAPGKGLEWMGRVNPDHGDSYYNQKFKDKATITADKSTDTAYMELSSLRSEDTAVYFCARNYLFDHWGQGTLVTVSS
VL: DIQMTQSPSSVSASVGDRVTITCKASQDVGTAVAWYQQKPGKAPKLLIYWASIRHTGVPSRFSGSGSGTDFTLTISSLQPEDFATYYCHQFATYTFGGGTKVEIK
modifications: vedotin (MMAE) payload
Bone metastasis: No (N=63 vs 68), ITT
  Disease progression or death, %: 63.5%
Bone metastasis: No, ITT
  Censoring, %: 36.5%
Bone metastasis: No, ITT, Kaplan-Meier
  Progression-free survival time, Median (95% CI): 9.6 months and 9.6 (6.9, 13.1) months
Bone metastasis: No, RC48-ADC relative to capecitabine+lapatinib
  COX proportional hazards model (without considering stratification factors) Hazard ratio (95% CI): 0.76 (0.50, 1.15)
Bone metastasis: Yes (N=36 vs 33), ITT
  Disease progression or death, %: 77.8%
Bone metastasis: Yes, ITT
  Censoring, %: 22.2%
Bone metastasis: Yes, ITT, Kaplan-Meier
  Progression-free survival time, Median (95% CI): 7.8 months and 7.8 (2.8, 12.4) months
Bone metastasis: Yes, RC48-ADC relative to capecitabine+lapatinib
  COX proportional hazards model (without considering stratification factors) Hazard ratio (95% CI): 0.95 (0.56, 1.61)
Liver metastasis: No (N=61 vs 58), ITT
  Disease progression or death, %: 75.4%
Liver metastasis: No, ITT
  Censoring, %: 24.6%
Liver metastasis: No, ITT, Kaplan-Meier
  Progression-free survival time, Median (95% CI): 7.0 months and 7.0 (5.5, 9.9) months
Liver metastasis: No, RC48-ADC relative to capecitabine+lapatinib
  COX proportional hazards model (without considering stratification factors) Hazard ratio (95% CI): 1.26 (0.83, 1.91)
Liver metastasis: Yes (N=38 vs 43), ITT
  Disease progression or death, %: 57.9%
Liver metastasis: Yes, ITT
  Censoring, %: 42.1%
Liver metastasis: Yes, ITT, Kaplan-Meier
  Progression-free survival time, Median (95% CI): 12.5 months and 12.5 (7.1, 14.1) months
Liver metastasis: Yes, RC48-ADC relative to capecitabine+lapatinib
  COX proportional hazards model (without considering stratification factors) Hazard ratio (95% CI): 0.41 (0.24, 0.71)
Lung metastasis: No (N=55 vs 49), ITT
  Disease progression or death, %: 61.8%
Lung metastasis: No, ITT
  Censoring, %: 38.2%
Lung metastasis: No, ITT, Kaplan-Meier
  Progression-free survival time, Median (95% CI): 10.9 months and 10.9 (5.7, 13.7) months
Lung metastasis: No, RC48-ADC relative to capecitabine+lapatinib
  COX proportional hazards model (without considering stratification factors) Hazard ratio (95% CI): 0.68 (0.42, 1.07)
Lung metastasis: Yes (N=44 vs 52), ITT
  Disease progression or death, %: 77.3%
Lung metastasis: Yes, ITT
  Censoring, %: 22.7%
Lung metastasis: Yes, ITT, Kaplan-Meier
  Progression-free survival time, Median (95% CI): 8.2 months and 8.2 (5.6, 12.2) months
Lung metastasis: Yes, RC48-ADC relative to capecitabine+lapatinib
  COX proportional hazards model (without considering stratification factors) Hazard ratio (95% CI): 1.05 (0.67, 1.65)
Viscera metastasis (CRF): No (N=22 vs 23), ITT
  Disease progression or death, %: 68.2%
Viscera metastasis (CRF): No, ITT
  Censoring, %: 31.8%
Viscera metastasis (CRF): No, ITT, Kaplan-Meier
  Progression-free survival time, Median (95% CI): 9.6 months and 9.6 (4.3, 14.2) months
Viscera metastasis (CRF): Yes (N=77 vs 78), ITT
  Disease progression or death, %: 68.8%
Viscera metastasis (CRF): Yes, ITT
  Censoring, %: 31.2%
Viscera metastasis (CRF): Yes, ITT, Kaplan-Meier
  Progression-free survival time, Median (95% CI): 9.3 months and 9.3 (6.9, 12.2) months
Viscera metastasis: No (as printed in Table 7), vs capecitabine+lapatinib
  relative risk reduction of disease progression or death: 24% chance of
Viscera metastasis: No, RC48-ADC relative to capecitabine+lapatinib
  COX proportional hazards model (without considering stratification factors) Hazard ratio (95% CI): 1.02 (0.51, 2.05)
Viscera metastasis: Yes, RC48-ADC relative to capecitabine+lapatinib
  COX proportional hazards model (without considering stratification factors) Hazard ratio (95% CI): 0.76 (0.53, 1.10)
[1]
  COX proportional hazards model (considering stratification factors) Hazard ratio (95% CI): 0.82 (0.59, 1.13)
  COX proportional hazards model (without considering stratification factors) Hazard ratio (95% CI): 0.82 (0.60, 1.14)
Overall sample of breast cancer patients
  PFS comparison with control group, in words: did not show a statistically significant advantage
overall, ITT analysis set
  Censoring, %: 31.3%
overall, ITT analysis set (N=99 vs 101)
  Disease progression or death, %: 68.7%
overall, ITT analysis set, Kaplan-Meier
  Progression-free survival, Median (95% CI): 9.3 months and 9.3 (6.9, 12.2) months
Patients with bone metastasis
  PFS comparison with control group, in words: no very significant difference; also recorded: no statistically significant difference
Patients with liver metastasis, vs capecitabine+lapatinib
  median progression-free survival time longer than control treatment group by: 6.9 months
Patients with lung metastasis
  PFS comparison with control group, in words: no significant difference
  progression-free survival time shorter than capecitabine+lapatinib by: 0.1 months
Patients with viscera metastasis
  PFS comparison with control group, in words: did not show statistical differences; also recorded: no statistically significant difference
Patients with viscera metastasis, vs lapatinib+capecitabine
  median progression-free survival time longer than control treatment group by: 2.4 months
Patients without bone metastasis
  PFS comparison with control group, in words: did not show a statistically significant advantage; also recorded: no very significant difference; also recorded: no statistically significant difference
Patients without bone metastasis, vs capecitabine+lapatinib
  relative risk reduction of disease progression or death: 24% chance of
Patients without bone metastasis, vs lapatinib+capecitabine
  median progression-free survival time longer than control treatment group by: 1.6 months
Patients without liver metastasis, vs capecitabine+lapatinib
  median progression-free survival time shorter than control treatment group by: 2.0 months
Patients without lung metastasis, vs capecitabine+lapatinib
  median progression-free survival time longer than control treatment group by: 5.3 months
Patients without viscera metastasis
  PFS comparison with control group, in words: did not show a statistically significant advantage; also recorded: no statistical difference; also recorded: no statistically significant difference
Patients without viscera metastasis, vs lapatinib+capecitabine
  median progression-free survival time longer than control treatment group by: 1.5 months
